{"source": "paper PMC5028754", "about": "(2016)", "binders": {"B1": {"name": "Ddi1 RVP-UBA (180-428) (domain or fragment)", "chain": "QQAIDEQLRNAIEYTPEMFTQVPMLYINIEINNYPVKAFVDTGAQTTIMSTRLAKKTGLSRMIDKRFIGEARGVGTGKIIGRIHQAQVKIETQYIPCSFTVLDTDIDVLIGLDMLKRHLACVDLKENVLRIAEVETSFLSEAEIPKSFQEGLPAPTSVTTSSDKPLTPTKTSSTLPPQPGAVPALAPRTGMGPTPTGRSTAGATTATGRTFPEQTIKQLMDLGFPRDAVVKALKQTNGNAEFAASLLFQ"}, "B2": {"name": "Ddi1 UBL-RVP (1-325) (domain or fragment)", "chain": "MDLTISNELTGEIYGPIEVSEDMALTDLIALLQADCGFDKTKHDLYYNMDILDSNRTQSLKELGLKTDDLLLIRGKISNSIQTDAATLSDEAFIEQFRQELLNNQMLRSQLILQIPGLNDLVNDPLLFRERLGPLILQRRYGGYNTAMNPFGIPQDEYTRLMANPDDPDNKKRIAELLDQQAIDEQLRNAIEYTPEMFTQVPMLYINIEINNYPVKAFVDTGAQTTIMSTRLAKKTGLSRMIDKRFIGEARGVGTGKIIGRIHQAQVKIETQYIPCSFTVLDTDIDVLIGLDMLKRHLACVDLKENVLRIAEVETSFLSEAEIPK"}, "B3": {"name": "full-length yeast Ddi1 (natural protein)", "chain": "MDLTISNELTGEIYGPIEVSEDMALTDLIALLQADCGFDKTKHDLYYNMDILDSNRTQSLKELGLKTDDLLLIRGKISNSIQTDAATLSDEAFIEQFRQELLNNQMLRSQLILQIPGLNDLVNDPLLFRERLGPLILQRRYGGYNTAMNPFGIPQDEYTRLMANPDDPDNKKRIAELLDQQAIDEQLRNAIEYTPEMFTQVPMLYINIEINNYPVKAFVDTGAQTTIMSTRLAKKTGLSRMIDKRFIGEARGVGTGKIIGRIHQAQVKIETQYIPCSFTVLDTDIDVLIGLDMLKRHLACVDLKENVLRIAEVETSFLSEAEIPKSFQEGLPAPTSVTTSSDKPLTPTKTSSTLPPQPGAVPALAPRTGMGPTPTGRSTAGATTATGRTFPEQTIKQLMDLGFPRDAVVKALKQTNGNAEFAASLLFQ"}}, "key": {"bovine ubiquitin [1]": {"molecular_target": "T1, bovine ubiquitin (bovine, UniProt P0CG53 1-76)", "test": "ITC"}, "bovine ubiquitin [2]": {"molecular_target": "T1, bovine ubiquitin", "test": "ITC; one-site model, N=2"}}, "data": [{"binder": "B1", "values": [{"measurement": "Ka", "setting": "bovine ubiquitin [1]", "value": 23400, "unit": "M⁻¹"}]}, {"binder": "B2", "values": [{"measurement": "Ka", "setting": "bovine ubiquitin [1]", "value": 3190, "unit": "M⁻¹"}]}, {"binder": "B3", "values": [{"measurement": "Ka", "setting": "bovine ubiquitin [2]", "value": 3160, "unit": "M⁻¹"}]}]}
